# Source: patent US20100196390A1 (RINAT NEUROSCIENCE, published 2010)
# Target: TrkB (Homo sapiens (Human), UniProt Q16620 32-430)
# Assay: koff of Fab at 25 C; T1/2=Log2/koff
# Procedure, shortened: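 Monovalent Fab fragments were tested at 25° C by surface plasmon resonance on a Biacore instrument, against TrkB extracellular-domain monomer amine-coupled to the chip at low capacity. Fabs were injected low to high as a 3-fold serial dilution from 100 nM for 84 sec, with a 10 minute dissociation after the top sample. The dissociation half-life was calculated from koff, which was fitted to a Langmuir binding model in BIAevaluation. The formula used was T1/2 = Log 2/koff.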
# TrkB, sequence (Q16620 32-430 limits assumed): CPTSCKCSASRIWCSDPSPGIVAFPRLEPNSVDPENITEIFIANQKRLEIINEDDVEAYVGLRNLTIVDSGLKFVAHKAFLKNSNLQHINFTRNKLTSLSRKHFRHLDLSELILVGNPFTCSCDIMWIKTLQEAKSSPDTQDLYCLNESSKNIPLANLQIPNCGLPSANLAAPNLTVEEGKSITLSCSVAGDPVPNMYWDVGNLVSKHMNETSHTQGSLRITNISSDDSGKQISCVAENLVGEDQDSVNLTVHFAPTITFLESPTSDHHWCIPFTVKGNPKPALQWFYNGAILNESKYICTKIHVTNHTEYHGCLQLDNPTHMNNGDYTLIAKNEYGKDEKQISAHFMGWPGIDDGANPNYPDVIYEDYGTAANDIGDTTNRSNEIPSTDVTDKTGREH
row,Binder,T1/2
1,"3-F2 (Fab, V domains shown, Fab) VH: QVQLVQSGAEVKKPGASVKVSCKASGYTFTNYVILWVRQAPGQGLEWMGYINPYNDGTKYNEKFKGRVTMTRDTSTSTVYMELSSLRSEDTAVYYCARLLKYRRFSYYAIDYWGQGTTVTVSS VL: DIQMTQSPSSLSASVGDRVTITCRASENVYSNLAWYQQKPGKAPKLLIYAASNLQSGVPSRFSGSGSGTDFTFTISSLQPEDIATYYCQHFWYSPFIFGQGTKLEIK",82.8 s
2,"3-F10 (Fab, V domains shown, Fab) VH: QVQLVQSGAEVKKPGASVKVSCKASGYTFTNYVILWVRQAPGQGLEWMGYINPYNDGTKYNEKFKGRVTMTRDTSTSTVYMELSSLRSEDTAVYYCARLLKYRRFSYYAIDYWGQGTTVTVSS VL: DIQMTQSPSSLSASVGDRVTITCRASENVYSNLAWYQQKPGKAPKLLIYAASNLQSGVPSRFSGSGSGTDFTFTISSLQPEDIATYYCQHFWYSPFKFGQGTKLEIK",47.4 s
3,"3-H8 (Fab, V domains shown, Fab) VH: QVQLVQSGAEVKKPGASVKVSCKASGYTFTNYVILWVRQAPGQGLEWMGYINPYNDGTKYNEKFKGRVTMTRDTSTSTVYMELSSLRSEDTAVYYCARLLKYRRFRYYAIDYWGQGTTVTVSS VL: DIQMTQSPSSLSASVGDRVTITCRASENVYSNLAWYQQKPGKAPKLLIYAASNLQSGVPSRFSGSGSGTDFTFTISSLQPEDIATYYCQHFWYSPFVFGQGTKLEIK",48.6 s
4,"4-A1 (Fab, V domains shown, Fab) VH: QVQLVQSGAEVKKPGASVKVSCKASGYTFTNYVILWVRQAPGQGLEWMGYINPYNDGTKYNEKFKGRVTMTRDTSTSTVYMELSSLRSEDTAVYYCARLLKYRRFSYYAIDYWGQGTTVTVSS VL: DIQMTQSPSSLSASVGDRVTITCRASENVYSNLAWYQQKPGKAPKLLIYAASNLQSGVPSRFSGSGSGTDFTFTISSLQPEDIATYYCQHFYYSPFTFGQGTKLEIK",55.8 s
5,"3-F11 (Fab, V domains shown, Fab) VH: QVQLVQSGAEVKKPGASVKVSCKASGYTFTNYVILWVRQAPGQGLEWMGYINPYNDGTKYNEKFKGRVTMTRDTSTSTVYMELSSLRSEDTAVYYCARLLKYRRFRYYAIDYWGQGTTVTVSS VL: DIQMTQSPSSLSASVGDRVTITCRASENVYSNLAWYQQKPGKAPKLLIYAASNLQSGVPSRFSGSGSGTDFTFTISSLQPEDIATYYCQHFWYSPFTFGQGTKLEIK",69.6 s

# More lines, now with the values ahead:
row,T1/2,Binder
1,72.6 s,"3-G5 (Fab, V domains shown, Fab) VH: QVQLVQSGAEVKKPGASVKVSCKASGYTFTNYVILWVRQAPGQGLEWMGYINPYNDGTKYNEKFKGRVTMTRDTSTSTVYMELSSLRSEDTAVYYCARLLKYRRFSYYAIDYWGQGTTVTVSS VL: DIQMTQSPSSLSASVGDRVTITCRASENVYSNLAWYQQKPGKAPKLLIYAASNLQSGVPSRFSGSGSGTDFTFTISSLQPEDIATYYCQNFWYSPFTFGQGTKLEIK"
2,60.6 s,"3-F7 (Fab, V domains shown, Fab) VH: QVQLVQSGAEVKKPGASVKVSCKASGYTFTNYVILWVRQAPGQGLEWMGYINPYNDGTKYNEKFKGRVTMTRDTSTSTVYMELSSLRSEDTAVYYCARLLKYRRFRYYAIDYWGQGTTVTVSS VL: DIQMTQSPSSLSASVGDRVTITCRASENVYSNLAWYQQKPGKAPKLLIYAASNLQSGVPSRFSGSGSGTDFTFTISSLQPEDIATYYCQHFWKSPFTFGQGTKLEIK"
3,55.2 s,"3-G7 (Fab, V domains shown, Fab) VH: QVQLVQSGAEVKKPGASVKVSCKASGYTFTNYVILWVRQAPGQGLEWMGYINPYNDGTKYNEKFKGRVTMTRDTSTSTVYMELSSLRSEDTAVYYCARLLKYRRFSYYAEDYWGQGTTVTVSS VL: DIQMTQSPSSLSASVGDRVTITCRASENVYSNLAWYQQKPGKAPKLLIYAASNLQSGVPSRFSGSGSGTDFTFTISSLQPEDIATYYCQNFWYSPFTFGQGTKLEIK"
